The values that follow are results of earlier work, collected in publication PMC11558822, “Myc 9aaTAD activation domain binds to mediator of transcription with superior high affinity” (Molecular Medicine, 2024).

pKd: −log10 of the molar value.

The target of this data set is CBP KIX (Homo sapiens) (UniProt Q92793). The data set can be described thus: ITC. A general note: ITC needs no label: the signal is the heat of the interaction.
Sequence of CBP KIX (Homo sapiens) (Q92793 584-669): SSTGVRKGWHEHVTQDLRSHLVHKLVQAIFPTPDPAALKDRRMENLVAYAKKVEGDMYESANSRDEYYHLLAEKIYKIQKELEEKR

Usually pKd stands for −log10 of the Kd, conventionally taken in molar units. As for MLL 9aaTAD (from UniProt Q03164), the pKd was 5.85.
